Source: the supplement of paper PMC10065799, “High-throughput profiling of sequence recognition by tyrosine kinases and SH2 domains using bacterial peptide display” (eLife, 2023)

Key:
SHP2-C SH2 = experiment: SH2 binding enrichment of the phosphorylated peptide, bacterial display (enrichment ratio); higher = better substrate or ligand; peptides without Tyr show the background
Grb2 SH2 = Grb2 SH2 (UniProt P62993); experiment: as above
c-Src SH2 = experiment: as above
EPHB1 = EPHB1 (UniProt P54762); experiment: phosphorylation enrichment, bacterial display (enrichment ratio); higher = better substrate or ligand; peptides without Tyr show the background
EPHB1, sequence (P54762 whole entry, looked up): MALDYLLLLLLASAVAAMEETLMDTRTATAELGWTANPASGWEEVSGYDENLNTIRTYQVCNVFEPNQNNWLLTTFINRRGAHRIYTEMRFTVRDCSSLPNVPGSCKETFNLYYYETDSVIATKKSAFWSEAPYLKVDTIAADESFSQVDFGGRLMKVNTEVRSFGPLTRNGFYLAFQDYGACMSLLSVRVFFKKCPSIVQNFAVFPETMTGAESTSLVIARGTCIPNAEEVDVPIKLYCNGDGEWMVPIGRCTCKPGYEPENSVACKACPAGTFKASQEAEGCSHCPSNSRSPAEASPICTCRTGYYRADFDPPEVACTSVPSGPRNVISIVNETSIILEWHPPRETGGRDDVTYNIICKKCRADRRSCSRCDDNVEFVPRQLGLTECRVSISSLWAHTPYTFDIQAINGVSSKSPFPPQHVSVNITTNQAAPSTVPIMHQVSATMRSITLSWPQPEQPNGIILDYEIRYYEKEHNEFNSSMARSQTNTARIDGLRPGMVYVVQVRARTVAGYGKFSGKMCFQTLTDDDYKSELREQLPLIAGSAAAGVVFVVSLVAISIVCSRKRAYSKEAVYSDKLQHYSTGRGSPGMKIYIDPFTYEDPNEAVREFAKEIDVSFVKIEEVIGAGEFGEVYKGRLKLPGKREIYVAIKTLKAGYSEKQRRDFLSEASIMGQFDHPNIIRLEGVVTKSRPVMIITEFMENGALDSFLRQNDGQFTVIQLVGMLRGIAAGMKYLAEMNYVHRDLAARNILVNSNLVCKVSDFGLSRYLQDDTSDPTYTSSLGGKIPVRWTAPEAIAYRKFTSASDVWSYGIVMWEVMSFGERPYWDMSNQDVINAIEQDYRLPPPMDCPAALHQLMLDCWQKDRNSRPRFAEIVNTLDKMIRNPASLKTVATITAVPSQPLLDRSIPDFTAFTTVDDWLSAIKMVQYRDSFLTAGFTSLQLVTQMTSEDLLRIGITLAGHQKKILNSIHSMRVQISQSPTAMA

MERTK = MERTK (UniProt Q12866); experiment: as above
Hck = Hck (UniProt P08631); experiment: as above
Hck, sequence (P08631 whole entry, looked up): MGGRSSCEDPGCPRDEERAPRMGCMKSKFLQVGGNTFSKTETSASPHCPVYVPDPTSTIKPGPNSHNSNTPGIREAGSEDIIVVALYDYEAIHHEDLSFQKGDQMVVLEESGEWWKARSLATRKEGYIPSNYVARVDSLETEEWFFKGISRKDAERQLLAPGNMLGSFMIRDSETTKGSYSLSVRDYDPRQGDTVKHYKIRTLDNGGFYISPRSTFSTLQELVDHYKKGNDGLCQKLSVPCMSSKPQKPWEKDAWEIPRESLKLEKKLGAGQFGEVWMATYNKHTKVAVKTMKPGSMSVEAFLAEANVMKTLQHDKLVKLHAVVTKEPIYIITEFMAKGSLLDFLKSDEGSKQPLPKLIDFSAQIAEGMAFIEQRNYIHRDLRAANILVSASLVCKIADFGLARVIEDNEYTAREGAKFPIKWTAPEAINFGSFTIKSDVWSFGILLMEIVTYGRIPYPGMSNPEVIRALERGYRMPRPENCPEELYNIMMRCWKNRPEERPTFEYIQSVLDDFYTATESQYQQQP

EPHB2 = EPHB2 (UniProt P29323); experiment: as above
Fes = Fes (UniProt P07332); experiment: as above
c-Src = experiment: as above
FGFR1 = FGFR1 (UniProt P11362); experiment: as above
FGFR1, sequence (P11362 whole entry, looked up): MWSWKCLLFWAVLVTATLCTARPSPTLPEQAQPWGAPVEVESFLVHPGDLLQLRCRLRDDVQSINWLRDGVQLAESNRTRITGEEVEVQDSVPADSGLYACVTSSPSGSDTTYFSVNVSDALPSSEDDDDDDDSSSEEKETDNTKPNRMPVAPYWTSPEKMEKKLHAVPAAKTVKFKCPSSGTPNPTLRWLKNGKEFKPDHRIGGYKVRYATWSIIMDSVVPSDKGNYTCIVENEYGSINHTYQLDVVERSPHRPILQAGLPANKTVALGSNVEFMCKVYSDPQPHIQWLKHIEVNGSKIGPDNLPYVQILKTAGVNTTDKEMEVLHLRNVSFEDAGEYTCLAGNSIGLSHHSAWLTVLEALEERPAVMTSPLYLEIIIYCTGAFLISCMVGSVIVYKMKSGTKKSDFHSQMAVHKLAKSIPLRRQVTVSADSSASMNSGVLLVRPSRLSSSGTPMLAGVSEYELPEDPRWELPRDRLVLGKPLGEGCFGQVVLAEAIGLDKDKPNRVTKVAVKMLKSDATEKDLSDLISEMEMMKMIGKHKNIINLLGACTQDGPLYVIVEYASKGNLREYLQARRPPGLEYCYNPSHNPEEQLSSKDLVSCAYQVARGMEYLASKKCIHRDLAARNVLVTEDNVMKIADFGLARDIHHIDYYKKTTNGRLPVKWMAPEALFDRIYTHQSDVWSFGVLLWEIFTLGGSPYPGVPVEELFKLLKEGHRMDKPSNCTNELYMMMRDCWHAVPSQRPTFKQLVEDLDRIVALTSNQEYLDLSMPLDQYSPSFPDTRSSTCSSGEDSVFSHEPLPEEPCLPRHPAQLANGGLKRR

Jak2 = Jak2 (UniProt O60674); experiment: as above
Jak2, sequence (O60674 whole entry, looked up): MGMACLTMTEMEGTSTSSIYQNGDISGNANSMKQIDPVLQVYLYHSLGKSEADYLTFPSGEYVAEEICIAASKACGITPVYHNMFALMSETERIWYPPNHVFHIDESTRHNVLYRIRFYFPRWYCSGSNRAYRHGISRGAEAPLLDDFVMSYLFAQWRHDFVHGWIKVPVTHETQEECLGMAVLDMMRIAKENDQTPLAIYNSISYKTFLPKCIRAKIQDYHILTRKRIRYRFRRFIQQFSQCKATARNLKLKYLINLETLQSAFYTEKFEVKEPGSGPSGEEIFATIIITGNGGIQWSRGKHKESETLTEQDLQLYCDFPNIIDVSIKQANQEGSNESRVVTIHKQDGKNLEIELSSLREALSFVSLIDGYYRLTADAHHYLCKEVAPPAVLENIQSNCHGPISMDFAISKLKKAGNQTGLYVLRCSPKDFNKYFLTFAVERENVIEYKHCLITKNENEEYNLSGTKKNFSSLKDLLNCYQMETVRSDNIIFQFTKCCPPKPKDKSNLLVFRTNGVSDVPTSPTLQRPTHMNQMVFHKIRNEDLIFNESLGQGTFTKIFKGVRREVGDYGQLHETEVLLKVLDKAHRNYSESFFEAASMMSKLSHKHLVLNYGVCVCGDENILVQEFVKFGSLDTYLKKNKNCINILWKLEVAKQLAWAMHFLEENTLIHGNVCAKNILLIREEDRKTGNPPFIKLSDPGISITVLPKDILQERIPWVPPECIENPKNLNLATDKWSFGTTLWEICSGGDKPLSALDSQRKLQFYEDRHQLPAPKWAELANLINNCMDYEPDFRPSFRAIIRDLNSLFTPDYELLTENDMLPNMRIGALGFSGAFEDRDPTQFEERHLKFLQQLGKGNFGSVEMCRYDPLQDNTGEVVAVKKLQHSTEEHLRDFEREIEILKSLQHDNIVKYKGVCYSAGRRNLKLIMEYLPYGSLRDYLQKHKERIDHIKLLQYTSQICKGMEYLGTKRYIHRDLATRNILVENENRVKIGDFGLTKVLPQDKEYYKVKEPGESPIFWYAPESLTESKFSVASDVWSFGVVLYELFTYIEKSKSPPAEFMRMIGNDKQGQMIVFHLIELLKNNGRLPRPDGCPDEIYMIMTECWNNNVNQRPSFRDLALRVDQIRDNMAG

Fer (mouse) = experiment: as above
FGFR3 = FGFR3 (UniProt P22607); experiment: as above
FGFR3, sequence (P22607 whole entry, looked up): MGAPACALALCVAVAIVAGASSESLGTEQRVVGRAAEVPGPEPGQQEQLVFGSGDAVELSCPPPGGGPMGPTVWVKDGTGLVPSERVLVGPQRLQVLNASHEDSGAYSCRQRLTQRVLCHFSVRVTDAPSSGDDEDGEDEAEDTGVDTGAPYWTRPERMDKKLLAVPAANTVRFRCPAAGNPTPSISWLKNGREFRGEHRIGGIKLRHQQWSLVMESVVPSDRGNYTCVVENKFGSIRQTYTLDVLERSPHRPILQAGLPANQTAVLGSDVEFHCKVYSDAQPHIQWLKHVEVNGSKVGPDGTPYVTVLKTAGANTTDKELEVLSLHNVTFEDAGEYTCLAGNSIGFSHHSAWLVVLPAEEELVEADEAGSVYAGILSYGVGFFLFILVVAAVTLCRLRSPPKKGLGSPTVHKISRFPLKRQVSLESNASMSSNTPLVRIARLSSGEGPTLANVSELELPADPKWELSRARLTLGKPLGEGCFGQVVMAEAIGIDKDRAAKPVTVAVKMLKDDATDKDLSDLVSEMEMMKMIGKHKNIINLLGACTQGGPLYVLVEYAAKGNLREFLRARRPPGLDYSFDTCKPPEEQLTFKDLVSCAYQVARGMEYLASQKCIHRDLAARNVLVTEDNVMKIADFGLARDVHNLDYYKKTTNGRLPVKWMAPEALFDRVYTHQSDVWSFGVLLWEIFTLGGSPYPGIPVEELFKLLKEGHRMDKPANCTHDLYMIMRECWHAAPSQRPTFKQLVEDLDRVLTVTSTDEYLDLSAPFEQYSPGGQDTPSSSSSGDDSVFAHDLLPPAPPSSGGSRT

c-Abl (mouse) = experiment: as above
AncSZ = experiment: as above
Fyn = Fyn (UniProt P06241); experiment: as above
Fyn, sequence (P06241 whole entry, looked up, the tested form may be a part): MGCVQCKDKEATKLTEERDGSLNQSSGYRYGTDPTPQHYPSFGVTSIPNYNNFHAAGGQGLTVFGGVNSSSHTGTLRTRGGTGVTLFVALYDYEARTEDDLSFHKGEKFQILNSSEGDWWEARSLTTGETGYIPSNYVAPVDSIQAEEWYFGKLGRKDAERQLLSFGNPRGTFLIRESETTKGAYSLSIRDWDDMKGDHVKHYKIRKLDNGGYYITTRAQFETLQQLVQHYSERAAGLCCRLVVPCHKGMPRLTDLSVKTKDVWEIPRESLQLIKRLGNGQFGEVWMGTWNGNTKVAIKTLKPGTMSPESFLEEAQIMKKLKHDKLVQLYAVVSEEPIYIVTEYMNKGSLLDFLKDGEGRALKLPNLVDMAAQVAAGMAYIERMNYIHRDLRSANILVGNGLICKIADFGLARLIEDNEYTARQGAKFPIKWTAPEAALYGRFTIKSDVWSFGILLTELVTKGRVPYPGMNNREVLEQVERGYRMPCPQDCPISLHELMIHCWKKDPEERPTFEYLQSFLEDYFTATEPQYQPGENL
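For SH2 binding enrichment of the phosphorylated peptide, bacterial display in this document: peptide library displayed on the E. coli surface as eCPX fusions, selected cells deep-sequenced, score is each peptide's frequency after selection divided by its frequency in the input.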
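For phosphorylation enrichment, bacterial display in this document: 11-residue human phosphosite peptides and single-mutation variants displayed on the E. coli surface, counted by deep sequencing, each peptide's frequency after selection divided by its frequency in the unselected input library; frequency after pTyr selection over input frequency; kinase dosed for 20-30% of maximal phosphorylation in three min.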

Grb2 SH2, sequence (P62993 whole entry, looked up): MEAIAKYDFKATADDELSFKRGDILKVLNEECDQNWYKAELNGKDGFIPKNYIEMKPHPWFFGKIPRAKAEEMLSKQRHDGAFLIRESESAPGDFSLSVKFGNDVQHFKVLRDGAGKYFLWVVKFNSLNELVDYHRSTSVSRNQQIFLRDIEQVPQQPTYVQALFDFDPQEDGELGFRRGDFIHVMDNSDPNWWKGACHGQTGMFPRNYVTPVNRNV

Sequence | SH2 binding enrichment (SHP2-C SH2) | SH2 binding enrichment (Grb2 SH2) | SH2 binding enrichment (c-Src SH2) | phosphorylation enrichment (EPHB1) | phosphorylation enrichment (MERTK) | phosphorylation enrichment (Hck) | phosphorylation enrichment (EPHB2) | phosphorylation enrichment (Fes) | phosphorylation enrichment (c-Src) | phosphorylation enrichment (FGFR1) | phosphorylation enrichment (Jak2) | phosphorylation enrichment (Fer (mouse)) | phosphorylation enrichment (FGFR3) | phosphorylation enrichment (c-Abl (mouse)) | phosphorylation enrichment (AncSZ) | phosphorylation enrichment (Fyn)
PLEGKYEWQEV [CDKN1B_Y74] | 0.516 | 0.675 | 3.88 | 0.57 | 0.452 | 0.483 | 0.572 | 1.49 | 0.465 | 0.619 | 1.11 | 0.613 | 0.743 | 0.816 | 1.29 | 0.379
VKGGAYYPVTV [MCCC2_Y145] | 0.8 | 0.955 | 0.715 | 0.331 | 4.41 | 0.607 | 0.551 | 0.822 | 0.445 | 5.39 | 2.65 | 0.819 | 3.75 | 0.609 | 0.582 | 0.423
NEANKYQISVN [FGB_Y368] | 0.717 | 0.763 | 0.481 | 0.39 | 0.371 | 0.391 | 0.411 | 0.816 | 0.425 | 0.372 | 0.654 | 0.369 | 0.459 | 0.592 | 0.691 | 0.435
RSSKMYLKTRS [LPL_Y329] | 0.712 | 0.83 | 0.553 | 0.484 | 1.53 | 0.758 | 0.792 | 1.24 | 0.452 | 0.8 | 0.827 | 0.541 | 0.885 | 0.585 | 1.07 | 0.631
FDDIANIRKTL [PIK3CA_Y1021_Y1021N] | 0.635 | 0.858 | 0.547 | 0.525 | 0.386 | 0.275 | 0.452 | 0.746 | 0.416 | 0.652 | 0.496 | 0.459 | 0.513 | 0.813 | 0.873 | 0.465
ALTRSYIRERV [CYP2C8_Y243_K247R] | 0.51 | 0.607 | 0.395 | 0.373 | 0.391 | 0.493 | 0.457 | 0.536 | 0.451 | 0.421 | 0.58 | 0.373 | 0.423 | 0.458 | 0.768 | 0.334
NESVDSRATFP [MET_Y1003_Y1003S] | 0.625 | 0.925 | 0.48 | 0.427 | 0.531 | 0.492 | 0.597 | 1.1 | 0.48 | 0.485 | 0.826 | 0.376 | 0.583 | 0.661 | 0.783 | 0.442
VHNLDYYKKTT [FGFR3_Y647] | 0.556 | 0.796 | 0.389 | 0.428 | 0.414 | 0.408 | 0.474 | 0.624 | 0.371 | 0.369 | 0.469 | 0.394 | 0.771 | 0.443 | 0.527 | 0.39
RDWSHYFKIIE [KRT18_Y129] | 0.436 | 0.776 | 0.479 | 0.824 | 0.296 | 0.57 | 1.08 | 1.72 | 0.705 | 0.687 | 1.35 | 0.412 | 0.997 | 0.823 | 1.46 | 0.793
ANSSFYSTRSA [NUMA1_Y1836] | 0.659 | 0.713 | 0.412 | 0.405 | 0.523 | 1.07 | 0.365 | 0.568 | 0.468 | 0.425 | 0.575 | 0.356 | 0.41 | 0.644 | 0.56 | 0.513
RGRKVYLEGGF [PRIM2_Y201_D204G] | 0.27 | 0.941 | 0.479 | 0.532 | 0.972 | 0.858 | 0.431 | 0.642 | 0.803 | 0.355 | 0.796 | 0.855 | 0.446 | 0.719 | 0.787 | 0.351
LDLSFYHTSSS [EMD_Y182_P183H_YF] | 0.701 | 1 | 0.773 | 0.845 | 0.414 | 0.575 | 0.676 | 1.19 | 0.879 | 0.575 | 1.04 | 0.423 | 0.903 | 0.644 | 1.21 | 0.553
PLKALYLQQRL [ATM_Y2969_P2974L] | 1.17 | 1.2 | 0.8 | 0.539 | 0.523 | 0.62 | 0.629 | 1.01 | 0.46 | 0.429 | 0.634 | 0.398 | 0.692 | 0.722 | 0.776 | 0.343
ELQDDYEDMME [SLC4A1_Y8] | 0.665 | 0.907 | 0.747 | 0.646 | 0.451 | 0.659 | 0.558 | 1.07 | 0.415 | 0.566 | 0.956 | 0.549 | 0.718 | 0.56 | 1.16 | 0.542
YKTPTYPYLLP [PLD2_Y578] | 0.521 | 1.04 | 1.68 | 0.459 | 0.589 | 0.481 | 0.454 | 0.764 | 0.625 | 0.794 | 0.92 | 0.543 | 0.786 | 0.943 | 0.958 | 0.525
ASENVYVNTAH [CTSC_Y150_I153T] | 1.12 | 7.62 | 1.27 | 0.7 | 0.429 | 0.796 | 0.588 | 0.86 | 0.814 | 0.633 | 0.772 | 0.527 | 0.485 | 0.599 | 0.936 | 0.748
HNQDGYSYPSR [LDLR_Y845] | 0.707 | 1.07 | 6.74 | 0.55 | 0.913 | 0.618 | 0.584 | 0.826 | 0.661 | 0.614 | 0.831 | 0.738 | 0.886 | 0.823 | 1.25 | 0.836

Sequence | SH2 binding enrichment (SHP2-C SH2) | SH2 binding enrichment (Grb2 SH2) | SH2 binding enrichment (c-Src SH2) | phosphorylation enrichment (EPHB1) | phosphorylation enrichment (MERTK) | phosphorylation enrichment (Hck) | phosphorylation enrichment (EPHB2) | phosphorylation enrichment (Fes) | phosphorylation enrichment (c-Src) | phosphorylation enrichment (FGFR1) | phosphorylation enrichment (Jak2) | phosphorylation enrichment (Fer (mouse)) | phosphorylation enrichment (FGFR3) | phosphorylation enrichment (c-Abl (mouse)) | phosphorylation enrichment (AncSZ) | phosphorylation enrichment (Fyn)
YPKARYHWLVL [APTX_Y214] | 1.46 | 1.54 | 1.2 | 0.507 | 0.482 | 0.493 | 0.552 | 1.08 | 0.383 | 0.582 | 0.941 | 0.539 | 0.67 | 0.707 | 0.95 | 0.429
SGIFQYSIAKF [FOXL2_Y83_I84S_YF] | 1.5 | 0.947 | 1.11 | 0.555 | 0.469 | 0.569 | 0.525 | 0.969 | 0.5 | 0.64 | 0.756 | 0.467 | 0.638 | 0.573 | 0.889 | 0.478
SDGHEYIYVDR [PDGFRB_Y579_P584R] | 0.579 | 0.9 | 0.712 | 0.663 | 0.514 | 1.12 | 0.645 | 0.995 | 1.6 | 2.04 | 1.01 | 0.514 | 1.43 | 0.513 | 1.33 | 1.11
YLGRNYLETLM [DUS3L_Y610_D609N] | 1.1 | 1.01 | 0.41 | 0.578 | 0.467 | 0.551 | 0.467 | 0.926 | 0.411 | 0.85 | 0.705 | 0.487 | 0.744 | 0.765 | 0.859 | 0.435
LRFDSYWSFCN [SLC20A2_Y433_S434W_YF] | 0.945 | 1.01 | 0.726 | 1.04 | 0.572 | 2.1 | 0.774 | 1.33 | 2.72 | 1.64 | 1.49 | 0.506 | 1.4 | 0.781 | 1.25 | 2.12
DELDKYSEALK [TPM1_Y60] | 0.554 | 0.889 | 0.655 | 0.469 | 0.395 | 0.489 | 0.577 | 1.03 | 0.422 | 0.451 | 0.977 | 0.472 | 0.59 | 0.676 | 1.19 | 0.443
KAWGIYDCQQP [CYP3A7_Y75_V71A] | 0.489 | 0.969 | 0.602 | 8.32 | 5.53 | 6.67 | 4.21 | 1.56 | 4.8 | 0.53 | 1.12 | 3.52 | 0.852 | 1.12 | 1.73 | 7.28
RSSPTYRDCLQ [LARGE2_Y682] | 0.964 | 0.981 | 0.448 | 0.556 | 0.42 | 0.385 | 0.472 | 0.858 | 0.369 | 0.523 | 0.667 | 0.458 | 0.522 | 0.539 | 1.45 | 0.469
VYSTDYYRVGG [NTRK2_Y706] | 0.687 | 0.92 | 0.719 | 8.68 | 11 | 4.61 | 7.13 | 0.902 | 4.67 | 15.3 | 10 | 1.22 | 11.8 | 1.49 | 2.94 | 5.13
VWALTYCDLHK [KCNH2_Y827_R823W] | 0.791 | 0.884 | 0.655 | 1.75 | 0.507 | 0.632 | 0.76 | 1.32 | 1.2 | 0.823 | 1.49 | 0.594 | 0.967 | 0.809 | 1.28 | 0.605
VTAVAYRLAEQ [HK1_Y461] | 0.604 | 0.828 | 0.782 | 0.47 | 0.349 | 0.475 | 0.424 | 0.792 | 0.385 | 0.495 | 0.543 | 0.446 | 0.584 | 0.509 | 0.633 | 0.473
GGEEFYVHYVG [KAT8_Y90_R86G] | 1.89 | 0.931 | 0.495 | 0.627 | 0.455 | 0.488 | 0.532 | 1.21 | 0.565 | 0.681 | 1.22 | 0.532 | 0.849 | 0.741 | 1.32 | 0.547
HFGCVYLGTLL [MET_Y1093_H1094L] | 0.553 | 0.692 | 0.483 | 1.02 | 0.597 | 1.01 | 1.1 | 2.24 | 4.61 | 0.925 | 2.07 | 0.923 | 1.67 | 1.39 | 2.29 | 0.897
HLTNQYMQRVA [PABPC4_Y382] | 0.929 | 1.01 | 0.473 | 0.307 | 0.277 | 0.324 | 0.316 | 0.429 | 0.351 | 0.402 | 0.406 | 0.446 | 0.33 | 1.04 | 0.525 | 0.356
VLTSKYLGGGG [HBA1_Y141_R142L] | 0.695 | 0.824 | 0.456 | 0.292 | 0.347 | 0.32 | 0.326 | 0.461 | 0.334 | 0.448 | 0.444 | 0.264 | 0.308 | 0.375 | 0.382 | 0.275
PIQLFYTRKNT [GHR_Y86_R89K] | 0.756 | 0.767 | 0.605 | 0.65 | 0.846 | 1.18 | 0.835 | 1.62 | 1.39 | 0.718 | 1.86 | 1.27 | 0.967 | 0.916 | 4.3 | 1.04
